Results on 6 substances are retold here after publication doi:10.1101/2025.10.24.684422.

The target in test [1] is HAESA-LIKE 3 (HSL3) ectodomain, wild type (Arabidopsis thaliana). The test is described as follows: ITC.
The target in test [2] is HSL3 ectodomain Gln120Ala (Arabidopsis thaliana). Briefly: ITC.

CTNIP4^I61Y (peptide) gave a fold reduction in binding affinity against CTNIP4(46-70) (Cys-Cys) in test [1] of 120 fold.
Substance CTNIP4^C58A.C68A(46-70) (peptide) registered a fold impairment of binding against CTNIP4(46-70) (Cys-Cys) in test [1] of 200 fold.
In test [1], CTNIP4(48-70)_(Cys-Cys) (peptide) registered a fold loss of affinity against CTNIP4(46-70) (Cys-Cys) of 200 fold.
Consider CTNIP4^C58A(46-63) (peptide), for which the fold reduction in binding affinity against CTNIP4(46-70) (Cys-Cys) in test [1] is 200 fold.
Take CTNIP4(47-70)_(Cys-Cys) (peptide): the fold reduction in binding against CTNIP4(46-70) (Cys-Cys) in test [1] amounted to 4 fold.
CTNIP4(46-70)_(Cys-Cys) (peptide) yielded a fold reduction in binding affinity against wild-type HSL3 in test [2] of 60 fold.
